The results in this text go back to patent US20240059785A1 (QILU PUGET SOUND BIOTHERAPEUTICS, published 2024).

Test [1] concerns the target T1, human CD37 (Homo sapiens CD37) (Homo sapiens, UniProt P11049 1-281).
T1 construct: Multi-pass cell surface antigen; present on Raji, Ramos, WSU-DLCL2 cells, human B cells, or on stably transfected CHO cells (CD37/CHO); also called hCD37
T1 sequence: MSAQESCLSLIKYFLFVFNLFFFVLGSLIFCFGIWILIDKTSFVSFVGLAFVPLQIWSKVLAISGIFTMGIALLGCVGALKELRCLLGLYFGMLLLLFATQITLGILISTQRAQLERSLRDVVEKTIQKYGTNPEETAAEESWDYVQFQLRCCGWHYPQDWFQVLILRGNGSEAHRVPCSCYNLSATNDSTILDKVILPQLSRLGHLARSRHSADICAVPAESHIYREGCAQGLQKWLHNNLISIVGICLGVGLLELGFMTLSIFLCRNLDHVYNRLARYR
Put plainly: FACS on WSU-DLCL2, Raji and Ramos cells, 10 µg/mL.

Test [2] has as its target T2, cynomolgus monkey CD37 (Macaca fasicularis CD37) (cynomolgus monkey (Macaca fasicularis …, UniProt P11049 1-281 (human entry))).
T2 construct: On CD20+ or CD19+ B cells in cynomolgus monkey PBMCs; also called cynoCD37
T2 chain: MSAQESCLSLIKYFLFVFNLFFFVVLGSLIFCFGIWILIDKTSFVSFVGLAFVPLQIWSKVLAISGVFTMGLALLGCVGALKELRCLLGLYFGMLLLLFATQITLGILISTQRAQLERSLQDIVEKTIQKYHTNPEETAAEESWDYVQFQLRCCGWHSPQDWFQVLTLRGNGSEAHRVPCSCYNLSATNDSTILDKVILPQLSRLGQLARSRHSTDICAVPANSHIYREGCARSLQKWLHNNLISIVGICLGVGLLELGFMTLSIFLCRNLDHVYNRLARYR
Put plainly: FACS on CD20+ gated cynomolgus monkey PBMCs, compared with anti-hCD37 Ab1.

The target of test [3] is T2, cynomolgus monkey CD37 (Macaca …). Put plainly: FACS on CD20+ gated cynomolgus monkey PBMCs.
Test [4] deals with T1, human CD37 (Homo sapiens CD37). Put plainly: FACS, APC-labelled antibody on CD19+ B cells of human PBMCs.
The target of test [5] is T2, cynomolgus monkey CD37 (Macaca …). The experiment in a line: FACS, APC-labelled antibody on CD19+ B cells of cynomolgus monkey PBMCs. On the technique in general: A flow cytometer gives signals particle by particle.
Test [6] shares this target. Put plainly: FACS, ratio of EC50 on cynomolgus monkey B cells to EC50 on human B cells.
The target of test [7] is T3, human CD20 (Homo sapiens CD20) (Homo sapiens, UniProt P11836 1-297).
T3 construct: Multi-pass cell surface antigen; present on Raji, Ramos, WSU-DLCL2 cells, human CD19+ B cells, or on stably transfected CHO cells (CD20/CHO); also called hCD20
T3 sequence: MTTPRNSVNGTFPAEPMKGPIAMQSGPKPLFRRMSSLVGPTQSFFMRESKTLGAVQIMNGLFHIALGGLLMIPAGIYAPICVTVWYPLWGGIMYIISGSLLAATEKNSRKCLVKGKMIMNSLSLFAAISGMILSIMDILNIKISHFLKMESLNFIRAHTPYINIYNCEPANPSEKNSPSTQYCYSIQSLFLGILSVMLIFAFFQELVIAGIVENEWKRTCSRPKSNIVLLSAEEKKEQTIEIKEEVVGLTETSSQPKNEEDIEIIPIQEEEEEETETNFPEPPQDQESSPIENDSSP
Put plainly: FACS on CHO cells stably expressing hCD20 (CD20/CHO).

For test [8], the target named is T1, human CD37 (Homo sapiens CD37). The experiment in a line: FACS on CHO cells stably expressing hCD37 (CD37/CHO), EC50 of Geo MFI.
Test [9] addresses T3, human CD20 (Homo sapiens CD20). The experiment in a line: FACS on Raji cells, crude transfection supernatant.
Test [10] has the same target. The experiment in a line: FACS on WSU-DLCL2, Raji and Ramos cells, 10 µg/mL.
The target is the same in test [11]. Put plainly: FACS on Raji cells, titration.
The target in test [12] is T1, human CD37 (Homo sapiens CD37). Put plainly: FACS on CHO cells stably expressing hCD37 (CD37/CHO).
Test [13] has as its target T3, human CD20 (Homo sapiens CD20). Put plainly: FACS on CHO cells stably expressing hCD20 (CD20/CHO), EC50 of Geo MFI.

Numbering of substitutions follows the chain as printed. In names and notes the source's numbering stands.

B1: anti-hCD37 Ab1 (antibody, human IgG1, kappa, V domains shown)
VH: QVQLVQSGAEVKKPGASVKVSCKASGYTFTGYNMNWVRQNNGQRLEWMGNIDPYYGGTTYNRKFKGRVTITVDTSASTAYMELKSLRSEDTAVYYCARSVGPMDYWGQGTLVTVSS
VL: DIQMTQSPSSLSASVGDRVTITCRTSENVYSYLAWYQQKPGKAPKLLIYFAKTLAEGVPSRFSGSGSGTQFTLTISSLQPEDSASYYCQHHSDNPWTFGGGTELEIKR
notes: Humanized IgG1/kappa derived from G28.1; also called aCD37 Ab1
For B1, the binding result in [1] is on record as “binds”.

B2: anti-hCD37 Ab1.N18 (antibody, human IgG1, kappa, name in Kabat numbering, V domains shown)
VH: B1 VH with M34L, K65Q
VL: B1 VL with S31N, L54I, D93E
notes: IgG1 variant of anti-hCD37 Ab1
In the case of B2, the binding result in [2] was “binds”.

B3: anti-hCD37 Ab1.N19 (antibody, human IgG1, kappa, name in Kabat numbering, V domains shown)
VH: B1 VH with M34L, K65Q, M103L
VL: B1 VL with S31N, T53S, S92G
notes: as for B2
As for B3, the binding result in test [3] is “binds”.

B4: anti-hCD37 Ab1.N12 (antibody, human IgG1, kappa, V domains shown)
VH: B1 VH with M34L, K65Q
VL: B1 VL with T53S, D93E
notes: anti-hCD37 Ab1 with VH M34L + K64Q and VL T53S + D93E; also called anti-CD37 Ab1.N12
Consider B4, for which, in test [3], the binding result is on record as “binds”.

B5: anti-hCD37 Ab1.A1 (antibody, human IgG1, kappa)
heavy: not shown
light: DIQMTQSPSSLSASVGDRVTITCRTSENVYNYLAWYQQKPGKAPKLLIYFAKTLAEGVPSRFSGSGSGTQFTLTISSLQPEDSASYYCQHHSDNPWTFGGGTELEIKRTVAAPSVFIFPPSDEQLKSGTASVVCLLNNFYPREAKVQWKVDNALQSGNSQESVTEQDSKDSTYSLSSTLTLSKADYEKHKVYACEVTHQGLSSPVTKSFNRGEC
notes: anti-hCD37 Ab1 with VH-M34V + VL-S31N; also called anti-CD37 Ab1.A1
What is called EC50 is the concentration that produces a half-maximal response. For the molecule B5, the concentration giving a half-maximal response (EC50) in test [4] was found to be 4.05 nM; in test [5], 254 nM. Further, the “fold less potent than its binding of human B cells” value in test [6] stood at 62.7 fold.

B6: anti-hCD37 Ab1.A1.1 (antibody)
heavy: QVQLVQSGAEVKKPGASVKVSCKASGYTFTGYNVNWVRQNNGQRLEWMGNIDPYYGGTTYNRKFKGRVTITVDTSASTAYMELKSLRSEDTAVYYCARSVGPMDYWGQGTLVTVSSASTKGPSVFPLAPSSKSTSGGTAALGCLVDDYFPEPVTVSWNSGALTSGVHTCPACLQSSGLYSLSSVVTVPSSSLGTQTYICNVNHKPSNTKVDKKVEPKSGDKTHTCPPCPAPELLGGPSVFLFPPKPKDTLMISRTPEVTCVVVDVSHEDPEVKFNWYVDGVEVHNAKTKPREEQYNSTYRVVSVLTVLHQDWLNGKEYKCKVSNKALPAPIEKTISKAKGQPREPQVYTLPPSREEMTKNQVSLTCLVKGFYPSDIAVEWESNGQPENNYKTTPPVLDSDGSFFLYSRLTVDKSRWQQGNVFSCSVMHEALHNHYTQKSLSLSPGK
light: B5 light with S131K, Q160C, S162C, C214S
notes: Ab1.A1 with HC K147D, F170C, V173C, C220G, K409R and LC S131K, Q160C, S162C, C214S; also called α-CD37 Ab1.A1.1
In the case of B6, the binding result in [7] was “no binding (tested: about 0.0002 nM to about 30 nM)”. In test [8], this molecule registered an EC50 of 1.33 nM.

B7: anti-hCD20 Ab1-T6 (antibody, human IgG1, kappa, name in Kabat numbering, V domains shown)
VH: QVQLVQSGAEVKKPGSSVKVSCKASGYTFTSYNMHWVRQAPGQGLEWMGRIYPGNGDTSYNQKFQGRVTLTVDKSSSTAYMELSSLRSEDTAVYFCARVVYYSNSYWYFDVWGTGTMVTVSS
VL: EIVLTQSPDFQSVTPKEKVTITCRASSSVSYMHWYQQKPDQSPKPLIYAPSNLASGVPSRFSGSGSGTDYTLTINSLEAEDAATYYCQQWSFNPPTFGAGTKLEIKR
notes: IgG1; also called variant #3
Consider B7, for which, in [9], the binding result is “binds”.

B8: anti-hCD20 Ab1-T7 (antibody, human IgG1, kappa, name in Kabat numbering, V domains shown)
VH: B7 VH with R50A, N55E
VL: B7 VL
notes: IgG1; also called variant #7
Regarding B8, in test [10], the binding result is on record as “binds”.

B9: anti-hCD20 Ab1-T8 (antibody, human IgG1, kappa, name in Kabat numbering, V domains shown)
VH: B7 VH with R50A, S59D
VL: B7 VL
notes: IgG1; also called variant #8
With B9, the binding result in [9] is given as “binds”.

B10: rituximab (antibody, V domains shown)
VH: QVQLQQPGAELVKPGASVKMSCKASGYTFTSYNMHWVKQTPGRGLEWIGAIYPGNGDTSYNQKFKGKATLTADKSSSTAYMQLSSLTSEDSAVYYCARSTYYGGDWYFNVWGAGTTVTVSA
VL: QIVLSQSPAILSASPGEKVTMTCRASSSVSYIHWFQQKPGSSPKPWIYATSNLASGVPVRFSGSGSGTSYSLTISRVEAEDAATYYCQQWTSNPPTFGGGTKLEIK
In [11], B10 showed an EC50 of 18.2 nM.

B11: anti-hCD20 Ab1.2.2 (antibody, human IgG4 S228P, kappa)
heavy: QVQLVQSGAEVKKPGSSVKVSCKASGYTFTSYNMHWVRQAPGQGLEWMGAIYPGNGDTSYNQKFQGRVTLTVDKSSSTAYMELSSLRSEDTAVYFCARVVYYSNSYWYFDVWGTGTMVTVSSASTKGPSVFPLAPCSRSTSESTAALGCLVKDYFPEPVTVSWNSGALTSGVHTFPAVLQSSGLYSLSSVVTVPSSSLGTKTYTCNVDHKPSNTKVDKRVESKYGPPCPPCPAPELLGGPDVFLFPPKPKDTLMISRTPEVTCVVVDVSHEDPEVKFNWYVDGVEVHNAKTKPREEQYNATYRVVSVLTVLHQDWLNGKEYKCKVSNKALPAPIEKTISKAKGQPREPQVYTLPPSREMTKNQVSLTCLVKGFYPSDIAVEWESNGQPENNYKTTPPVLDSDGSFFLYSKLTVDKSRWQQGNVFSCSVMHEALHNHYTQKSLSLSPGK
light: EIVLTQSPDFQSVTPKEKVTITCRASSSVSYMHWYQQKPDQSPKPLIYAPSNLASGVPSRFSGSGSGTDYTLTINSLEAEDAATYYCQQWSFNPPTFGAGTKLEIKRTVAAPSVFIFPPSDEQLKSGTASVVCLLNNFYPREAKVQWKVDNALQSGNSQESVTEQDSKDSTYSLSSTLTLSKADYEKHKVYACEVTHQGLSSPVTKSFNRGEC
notes: Ab1.2 with S239D, S298A
Consider B11, for which, in [11], the 50% effective concentration (EC50) came to 26.3 nM.

B12: anti-hCD20 Ab1.2.2.1 (antibody, human IgG4 S228P, kappa)
heavy: QVQLVQSGAEVKKPGSSVKVSCKASGYTFTSYNMHWVRQAPGQGLEWMGAIYPGNGDTSYNQKFQGRVTLTVDKSSSTAYMELSSLRSEDTAVYFCARVVYYSNSYWYFDVWGTGTMVTVSSASTKGPSVFPLAPCSRSTSESTAALGCLVKDYFPEPVTVSWNSGALTSGVHTFPAVLQSSGLYSLSSVVTVPSSSLGTKTYTCNVDHKPSNTKVDKRVESKYGPPCPPCPAPELLGGPDVFLFPPKPKDTLMISRTPEVTCVVVDVSHEDPEVKFNWYVDGVEVHNAKTKPREEQYNATYRVVSVLTVLHQDWLNGKEYKCKVSNKALPAPIEKTISKAKGQPREPQVYTLPPSREEMTKNQVSLTCLVKGFYPSDIAVEWESNGQPENNYKTTPPVLRSDGSFFLYSELTVDKSRWQQGNVFSCSVMHEALHNHYTQKSLSLSPGK
light: B11 light
notes: Ab1.2.2 with D399R and K409E in the CH3; also called α-CD20 Ab1.2.2.1
For B12, the binding result in test [12] is reported as “no binding (tested: about 0.0002 nM to about 30 nM)”. This molecule showed an EC50 in test [13] of 5.02 nM.
